# According to IntAct's records for PubMed 35512704:
# B1: Mothers against decapentaplegic homolog 4 (Homo sapiens), Q13485 (parent)
# chain: MDNMSITNTPTSNDACLSIVHSLMCHRQGGESETFAKRAIESLVKKLKEKKDELDSLITAITTNGAHPSKCVTIQRTLDGRLQVAGRKGFPHVIYARLWRWPDLHKNELKHVKYCQYAFDLKCDSVCVNPYHYERVVSPGIDLSGLTLQSNAPSSMMVKDEYVHDFEGQPSLSTEGHSIQTIQHPPSNRASTETYSTPALLAPSESNATSTANFPNIPVASTSQPASILGGSHSEGLLQIASGPQPGQQQNGFTGQPATYHHNSTTTWTGSRTAPYTPNLPHHQNGHLQHHPPMPPHPGHYWPVHNELAFQPPISNHPAPEYWCSIAYFEMDVQVGETFKVPSSCPIVTVDGYVDPSGGDRFCLGQLSNVHRTEAIERARLHIGKGVQLECKGEGDVWVRCLSDHAVFVQSYYLDREAGRAPGDAVHKIYPSAYIKVFDLRQCHRQMQQQAATAQAAAAAQAAAVAGNIPGPGSVGGIAPAISLSAAAGIGVDDLRRLCILRMSFVKGWGPDYPRQSIKETPCWIEIHLHRALQLLDEVLHTMPIADPQPLD
# Variants of: B1
# Settings: with foxo1_human FOXO1, Q12778
row,effect of a mutation on the interaction,Variant
1,with no effect,D351H

# Variants of: B1
# Settings: with foxo3_human FOXO3, O43524
row,effect of a mutation on the interaction,Variant
1,with no effect,D351H

# Variants of: B1
# Settings: with gbra6_human GABRA6, Q16445
row,effect of a mutation on the interaction,Variant
1,with no effect,D351H

# Variants of: B1
# Settings: with gata2_human GATA2, P23769
row,effect of a mutation on the interaction,Variant
1,with no effect,D351H

# Variants of: B1
# Settings: with gata3_human GATA3, P23771
row,effect of a mutation on the interaction,Variant
1,with no effect,D351H

# Variants of: B1
# Settings: with gna11_human GNA11, P29992
row,effect of a mutation on the interaction,Variant
1,with no effect,D351H

# Variants of: B1
# Settings: with gna13_human GNA13, Q14344
row,effect of a mutation on the interaction,Variant
1,with no effect,D351H

# Variants of: B1
# Settings: with gnaq_human GNAQ
row,effect of a mutation on the interaction,Variant
1,with no effect,D351H

# Variants of: B1
# Settings: with grb7_human GRB7, Q14451
row,effect of a mutation on the interaction,Variant
1,with no effect,D351H

# Variants of: B1
# Settings: with grm1_human GRM1, Q13255
row,effect of a mutation on the interaction,Variant
1,with no effect,D351H

# Variants of: B1
# Settings: with grm3_human GRM3, Q14832
row,effect of a mutation on the interaction,Variant
1,with no effect,D351H

# Variants of: B1
# Settings: with gsk3a_human GSK3A
row,effect of a mutation on the interaction,Variant
1,with no effect,D351H

# Variants of: B1
# Settings: with hdac1_human HDAC1, Q13547
row,effect of a mutation on the interaction,Variant
1,with no effect,D351H

# Variants of: B1
# Settings: with hdac3_human HDAC3, O15379
row,effect of a mutation on the interaction,Variant
1,with no effect,D351H

# Variants of: B1
# Settings: with hgf_human HGF
row,effect of a mutation on the interaction,Variant
1,with no effect,D351H

# Variants of: B1
# Settings: with h31_human H3C1, P68431
row,effect of a mutation on the interaction,Variant
1,with no effect,D351H

# Variants of: B1
# Settings: with hlab_human HLA-B
row,effect of a mutation on the interaction,Variant
1,with no effect,D351H

# Variants of: B1
# Settings: with rash_human HRAS
row,effect of a mutation on the interaction,Variant
1,with no effect,D351H

# Variants of: B1
# Settings: with hs90a_human HSP90AA1, P07900
row,effect of a mutation on the interaction,Variant
1,with no effect,D351H

# Variants of: B1
# Settings: with il7ra_human IL7R
row,effect of a mutation on the interaction,Variant
1,with no effect,D351H

# Variants of: B1
# Settings: with irf6_human IRF6, O14896
row,effect of a mutation on the interaction,Variant
1,with no effect,D351H

# Variants of: B1
# Settings: with irs1_human IRS1, P35568
row,effect of a mutation on the interaction,Variant
1,with no effect,D351H

# Variants of: B1
# Settings: with jak1_human JAK1, P23458
row,effect of a mutation on the interaction,Variant
1,with no effect,D351H

# Variants of: B1
# Settings: with kat2a_human KAT2A
row,effect of a mutation on the interaction,Variant
1,with no effect,D351H

# Variants of: B1
# Settings: with kdm5c_human KDM5C
row,effect of a mutation on the interaction,Variant
1,with no effect,D351H

# Variants of: B1
# Settings: with kdm6a_human KDM6A
row,effect of a mutation on the interaction,Variant
1,with no effect,D351H

# Variants of: B1
# Settings: with vgfr2_human KDR
row,effect of a mutation on the interaction,Variant
1,with no effect,D351H

# Variants of: B1
# Settings: with keap1_human KEAP1, Q14145
row,effect of a mutation on the interaction,Variant
1,with no effect,D351H

# Variants of: B1
# Settings: with klf4_human KLF4, O43474
row,effect of a mutation on the interaction,Variant
1,with no effect,D351H

# Variants of: B1
# Settings: with maga6_human MAGEA6, P43360
row,effect of a mutation on the interaction,Variant
1,with no effect,D351H

# Variants of: B1
# Settings: with mp2k7_human MAP2K7, O14733
row,effect of a mutation on the interaction,Variant
1,with no effect,D351H

# Variants of: B1
# Settings: with m3k1_human MAP3K1, Q13233
row,effect of a mutation on the interaction,Variant
1,with no effect,D351H

# Variants of: B1
# Settings: with mk10_human MAPK10, P53779
row,effect of a mutation on the interaction,Variant
1,with no effect,D351H

# Variants of: B1
# Settings: with mk14_human MAPK14, Q16539
row,effect of a mutation on the interaction,Variant
1,with no effect,D351H

# Variants of: B1
# Settings: with mk03_human MAPK3, P27361
row,effect of a mutation on the interaction,Variant
1,with no effect,D351H

# Variants of: B1
# Settings: with mk04_human MAPK4, P31152
row,effect of a mutation on the interaction,Variant
1,with no effect,D351H

# Variants of: B1
# Settings: with mk06_human MAPK6, Q16659
row,effect of a mutation on the interaction,Variant
1,with no effect,D351H

# Variants of: B1
# Settings: with mcl1_human MCL1, Q07820
row,effect of a mutation on the interaction,Variant
1,with no effect,D351H

# Variants of: B1
# Settings: with mitf_human MITF
row,effect of a mutation on the interaction,Variant
1,with no effect,D351H

# Variants of: B1
# Settings: with myc_human MYC
row,effect of a mutation on the interaction,Variant
1,with no effect,D351H

# Variants of: B1
# Settings: with nck2_human NCK2, O43639
row,effect of a mutation on the interaction,Variant
1,with no effect,D351H

# Variants of: B1
# Settings: with nf1_human NF1, P21359
row,effect of a mutation on the interaction,Variant
1,with no effect,D351H

# Variants of: B1
# Settings: with merl_human NF2, P35240
row,effect of a mutation on the interaction,Variant
1,with no effect,D351H

# Variants of: B1
# Settings: with nfic_human NFIC
row,effect of a mutation on the interaction,Variant
1,with no effect,D351H

# Variants of: B1
# Settings: with notc2_human NOTCH2, Q04721
row,effect of a mutation on the interaction,Variant
1,with no effect,D351H

# Variants of: B1
# Settings: with ntrk2_human NTRK2, Q16620
row,effect of a mutation on the interaction,Variant
1,with no effect,D351H

# Variants of: B1
# Settings: with ntrk3_human NTRK3, Q16288
row,effect of a mutation on the interaction,Variant
1,with no effect,D351H

# Variants of: B1
# Settings: with pak3_human PAK3, O75914
row,effect of a mutation on the interaction,Variant
1,with no effect,D351H

# Variants of: B1
# Settings: with prkn_human PRKN
row,effect of a mutation on the interaction,Variant
1,with no effect,D351H

# Variants of: B1
# Settings: with pax5_human PAX5, Q02548
row,effect of a mutation on the interaction,Variant
1,with no effect,D351H

# Variants of: B1
# Settings: with pax9_human PAX9, P55771
row,effect of a mutation on the interaction,Variant
1,with no effect,D351H

# Variants of: B1
# Settings: with pcbp1_human PCBP1, Q15365
row,effect of a mutation on the interaction,Variant
1,with no effect,D351H

# Variants of: B1
# Settings: with pgfra_human PDGFRA
row,effect of a mutation on the interaction,Variant
1,with no effect,D351H

# Variants of: B1
# Settings: with pgfrb_human PDGFRB
row,effect of a mutation on the interaction,Variant
1,with no effect,D351H

# Variants of: B1
# Settings: with pdk1_human PDK1, Q15118
row,effect of a mutation on the interaction,Variant
1,with no effect,D351H

# Variants of: B1
# Settings: with PIK3C2B
row,effect of a mutation on the interaction,Variant
1,with no effect,D351H

# Variants of: B1
# Settings: with pk3c3_human PIK3C3, Q8NEB9
row,effect of a mutation on the interaction,Variant
1,with no effect,D351H

# Variants of: B1
# Settings: with pk3ca_human PIK3CA
row,effect of a mutation on the interaction,Variant
1,with no effect,D351H

# Variants of: B1
# Settings: with pk3cb_human PIK3CB
row,effect of a mutation on the interaction,Variant
1,with no effect,D351H

# Variants of: B1
# Settings: with pk3cg_human PIK3CG
row,effect of a mutation on the interaction,Variant
1,with no effect,D351H
